Experimental data as given in patent US6274703.
Like-named read-outs stand apart in the source and are kept apart here.

Key:
[1] = target: TIMP-2 (Homo sapiens (Human)) (UniProt P16035); experiment: competition with 125I-labelled WT GelA-CTD on TIMP-2 coated wells; against WT
[2] = target: TIMP-2 (Homo sapiens (Human)) (UniProt P16035); experiment: competition with 125I-labelled WT GelA-CTD on TIMP-2 coated wells; mutant Ki over WT Kd
[3] = target: TIMP-2 (Homo sapiens (Human)) (UniProt P16035); experiment: self competition with 125I-labelled WT GelA-CTD on TIMP-2 coated wells
[4] = target: TIMP-2 (Homo sapiens (Human)) (UniProt P16035); experiment: competition with 125I-labelled WT GelA-CTD on TIMP-2 coated wells; against WT; remark: listed apart in the source

Row | Substance | fold loss in TIMP-2 binding [1] [fold] | Ki/Kd [2] | Ki/Kd [3] | fold loss in TIMP-2 binding [4] [fold]
1 | FLAG GelA-CTD fusion protein, wild type (from UniProt P08253) | – | – | 1 | –
2 | FLAG GelA-CTD mutant #28 Asp^569→Ala (from UniProt P08253) | – | 8 | – | –
3 | FLAG GelA-CTD mutant #31 Lys^579→Ala (from UniProt P08253) | – | 6 | – | –
4 | FLAG GelA-CTD mutant #39 Lys^604→Ala (from UniProt P08253) | – | 25 | – | –
5 | FLAG GelA-CTD mutant #247 Lys^646→Ala (from UniProt P08253) | – | > 500 | – | > 100
6 | FLAG GelA-CTD mutant #250 Trp^574→Ala (from UniProt P08253) | – | > 500 | – | –
7 | FLAG GelA-CTD mutant #252 Tyr^636→Ala (from UniProt P08253) | – | 10 | – | –

Next, values leading:

Row | fold loss in TIMP-2 binding [1] [fold] | Ki/Kd [2] | Ki/Kd [3] | fold loss in TIMP-2 binding [4] [fold] | Substance
8 | > 100 | > 500 | – | – | FLAG GelA-CTD double mutant #46 Glu^641→Ala + Gly^651→Arg (from UniProt P08253)
9 | > 100 | 300 | – | – | FLAG GelA-CTD mutant #41 Asp^615→Ala (from UniProt P08253)
10 | – | > 500 | – | > 100 | FLAG GelA-CTD mutant #229 Lys^576→Ala (from UniProt P08253)
11 | > 100 | > 500 | – | > 100 | FLAG GelA-CTD mutant #234 Arg^590→Ala (from UniProt P08253)
12 | – | 8 | – | – | FLAG GelA-CTD mutant #255 Phe^650→Ala (from UniProt P08253)
13 | – | 3 | – | – | FLAG GelA-CTD mutant #257 Gly^651→Ala (from UniProt P08253)
14 | – | 10 | – | – | FLAG GelA-CTD mutant #258 Asp^656→Ala (from UniProt P08253)
15 | – | 3 | – | – | FLAG GelA-CTD mutant #259 Asn^611→Ala (from UniProt P08253)
